From publication doi:10.1101/477745, “The (p)ppGpp-binding GTPase Era promotes rRNA processing and cold shock survival in Staphylococcus aureus” (bioRxiv, 2019)

T1: Era fused to SB (small bit of luciferase) (S. aureus, UniProt Q2FGF6 1-299)
T1 construct: GTPase Era, Staphylococcus aureus; For the Era-Era pair the second copy of Era was fused to the large bit (LB); also called EraSB; full-length Era; source: S. aureus LAC*, expressed from pAP118 with Atet, in cells
T1 sequence (looked up): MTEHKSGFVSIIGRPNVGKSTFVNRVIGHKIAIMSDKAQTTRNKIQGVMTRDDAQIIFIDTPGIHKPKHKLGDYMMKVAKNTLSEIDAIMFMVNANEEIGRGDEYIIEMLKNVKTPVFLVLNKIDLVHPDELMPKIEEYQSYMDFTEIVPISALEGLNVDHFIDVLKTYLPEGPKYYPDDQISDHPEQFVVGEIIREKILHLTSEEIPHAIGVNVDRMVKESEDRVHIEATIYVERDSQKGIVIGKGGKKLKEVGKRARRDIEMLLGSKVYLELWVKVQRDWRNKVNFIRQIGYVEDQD

B1: full-length CshA fused to LB (large bit of luciferase) (natural protein, S. aureus, UniProt Q2FF45 1-506, looked up)
chain: MQNFKELGISDNTVQSLESMGFKEPTPIQKDSIPYALQGIDILGQAQTGTGKTGAFGIPLIEKVVGKQGVQSLILAPTRELAMQVAEQLREFSRGQGVQVVTVFGGMPIERQIKALKKGPQIVVGTPGRVIDHLNRRTLKTDGIHTLILDEADEMMNMGFIDDMRFIMDKIPAVQRQTMLFSATMPKAIQALVQQFMKSPKIIKTMNNEMSDPQIEEFYTIVKELEKFDTFTNFLDVHQPELAIVFGRTKRRVDELTSALISKGYKAEGLHGDITQAKRLEVLKKFKNDQINILVATDVAARGLDISGVSHVYNFDIPQDTESYTHRIGRTGRAGKEGIAVTFVNPIEMDYIRQIEDANGRKMSALRPPHRKEVLQAREDDIKEKVENWMSKESESRLKRISTELLNEYNDVDLVAALLQELVEANDEVEVQLTFEKPLSRKGRNGKPSGSRNRNSKRGNPKFDSKSKRSKGYSSKKKSTKKFDRKEKSSGGSRPMKGRTFADHQK
notes: DEAD-box RNA helicase CshA, Staphylococcus aureus, 506 residues by the printed domain limits; also called CshALB; source: S. aureus LAC*, expressed from pAP118 with Atet, in cells
B2: His-tagged Era (natural protein, S. aureus, UniProt Q2FGF6 1-299, looked up)
chain: T1 sequence (looked up)
notes: GTPase Era, Staphylococcus aureus; also called His-Era; recombinant Era

What was measured:
[1] = target: T1, Era fused to SB (small bit of …); experiment: split reporter (BiFC, NanoBiT); split luciferase (SB and LB fusions from pAP118) in S. aureus LAC*; 100 ng/ml Atet for 90 min, normalised to OD600 0.1, Nano-Glo; luminescence relative to a control with one fusion only; conditions: partners not purified
GST-CshA = target: T2, GST-CshA (S. aureus, UniProt Q2FF45 1-506); experiment: pull-down; 1 uM GST or GST fusion coupled to glutathione beads; incubated with His-tagged protein (printed 1 pM) in 25 mM Tris pH 7.5, 150 mM NaCl, 5 mM MgCl2, 0.5% Triton X-100 at 4°C overnight; eluted with glutathione; blot with anti-His-HRP; conditions: both partners purified
T2 construct: DEAD-box RNA helicase CshA, Staphylococcus aureus; also called GST-tagged CshA; not shown: GST, N-terminal, kept

Row | Binder | fold increase in luciferase activity [1] | binding result (GST-CshA)
1 | B1 | 4 fold | 
2 | B2 |  | binds
